Data reported in article PMC3874396.

Key:
[1] = target: SRP with fluorescein-labeled Ffh(C421) (Escherichia coli) (UniProt P0AGD7); assay: […]
[2] = target: RNC^EspP-Hydro-SRP complex (SRP with DACM-labeled Ffh(C235), loaded with RNC^EspP-Hydro) (Escherichia coli | not stated) (UniProt P0AGD7); assay: FRET or BRET
[3] = target: RNC^EspP-SRP complex (SRP with DACM-labeled Ffh(C235), loaded with RNC^EspP) (Escherichia coli | not stated) (UniProt P0AGD7); assay: FRET or BRET

Substance | Kd [1] [nM] | Kd [2] [nM] | kon [2] [M⁻¹ s⁻¹] | Kd [3] [nM] | kon [3] [M⁻¹ s⁻¹]
RNC^EspP (ribosome-nascent chain complex displaying the EspP signal sequence) (from UniProt Q7BSW5 56-88) | 13.6 |  |  |  | 
BODIPY-FL (acceptor)-labeled FtsY(C487) (from UniProt P10121 1-497) (receptor) |  | 300 | 15200 | 311 | 9200
